Measured values reported in the supplement of paper PMC9112550, “Optimization of the antimicrobial peptide Bac7 by deep mutational scanning” (BMC Biology, 2022).

System: Escherichia coli TOP10
Assay: shrunken log2 fold change of peptide-encoding DNA abundance (4.5 h post-induction vs induction); higher = less antimicrobial activity (less host growth inhibition)
Conditions: time post-induction: 4.5 h; library: site-saturation at positions 5, 18, 19, 20
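Also: peptides expressed intracellularly from a pBAD plasmid library in pooled LB shake-flask culture, induced with 0.3% L-arabinose, DNA abundance read by NGS, three biological replicates, DESeq2 with apeglm shrinkage.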

Sequence | shrunken log2 fold change
RRIRDRPPRLPRPRPRPEMDPRP | 0.0766
RRIRDRPPRLPRPRPRPENGPRP | 0.0234
RRIRDRPPRLPRPRPRPENMPRP | 0.0225
RRIRDRPPRLPRPRPRPEPTPRP | 0.885
RRIRDRPPRLPRPRPRPEPVPRP | 0.576
RRIRDRPPRLPRPRPRPEQCPRP | -0.00146
RRIRDRPPRLPRPRPRPERNPRP | 0.278
RRIRDRPPRLPRPRPRPESEPRP | 0.444
RRIRDRPPRLPRPRPRPEVEPRP | 1.68
RRIRDRPPRLPRPRPRPEVPPRP | 0.0916
RRIRDRPPRLPRPRPRPEYVPRP | -0.00373
RRIRDRPPRLPRPRPRPFAEPRP | 0.242
RRIRDRPPRLPRPRPRPFAQPRP | 0.0821
RRIRDRPPRLPRPRPRPFCCPRP | 0.26
RRIRDRPPRLPRPRPRPFCTPRP | -0.0992
RRIRDRPPRLPRPRPRPFCVPRP | 0.483
RRIRDRPPRLPRPRPRPFDNPRP | 0.0553
RRIRDRPPRLPRPRPRPFDSPRP | -0.0169
RRIRDRPPRLPRPRPRPFEMPRP | 0.182
RRIRDRPPRLPRPRPRPFGCPRP | -0.109
RRIRDRPPRLPRPRPRPFHCPRP | -0.194
RRIRDRPPRLPRPRPRPFHDPRP | -0.157
RRIRDRPPRLPRPRPRPFHHPRP | -0.886
RRIRDRPPRLPRPRPRPFKDPRP | -0.00443
RRIRDRPPRLPRPRPRPFKEPRP | 0.0108
RRIRDRPPRLPRPRPRPFLEPRP | -0.192
RRIRDRPPRLPRPRPRPFLQPRP | -0.091

Sequence | shrunken log2 fold change
RRIRDRPPRLPRPRPRPFNPPRP | -0.509
RRIRDRPPRLPRPRPRPFNRPRP | 0.00902
RRIRDRPPRLPRPRPRPFPQPRP | 0.0191
RRIRDRPPRLPRPRPRPFPWPRP | -0.192
RRIRDRPPRLPRPRPRPFRVPRP | -0.101
RRIRDRPPRLPRPRPRPFVGPRP | -0.0346
RRIRDRPPRLPRPRPRPFWGPRP | 0.127
RRIRDRPPRLPRPRPRPFWVPRP | -0.222
RRIRDRPPRLPRPRPRPGECPRP | -0.0602
RRIRDRPPRLPRPRPRPGFDPRP | 0.926
RRIRDRPPRLPRPRPRPGHEPRP | -0.00201
RRIRDRPPRLPRPRPRPGHNPRP | -0.0961
RRIRDRPPRLPRPRPRPGKFPRP | -0.0736
RRIRDRPPRLPRPRPRPGLEPRP | 1
RRIRDRPPRLPRPRPRPGNCPRP | 0.153
RRIRDRPPRLPRPRPRPGNSPRP | -0.0582
RRIRDRPPRLPRPRPRPGNWPRP | -0.0358
RRIRDRPPRLPRPRPRPGPAPRP | 0.608
RRIRDRPPRLPRPRPRPGPMPRP | -0.00245
RRIRDRPPRLPRPRPRPGQFPRP | -0.166
RRIRDRPPRLPRPRPRPGRRPRP | 0.311
RRIRDRPPRLPRPRPRPGRSPRP | 0.0526
RRIRDRPPRLPRPRPRPGSAPRP | 0.238
RRIRDRPPRLPRPRPRPGSRPRP | 0.0273
RRIRDRPPRLPRPRPRPGSYPRP | -0.0689
RRIRDRPPRLPRPRPRPGTPPRP | 0.223
RRIRDRPPRLPRPRPRPGTTPRP | 0.427
